{
  "source": "patent US20080009025A1",
  "about": "“PROTEIN KINASE REGULATION” (priority 1999, published 2008)",
  "target": "GST-PDK1[K115A], O15530",
  "sequence (O15530 whole entry K115A)": "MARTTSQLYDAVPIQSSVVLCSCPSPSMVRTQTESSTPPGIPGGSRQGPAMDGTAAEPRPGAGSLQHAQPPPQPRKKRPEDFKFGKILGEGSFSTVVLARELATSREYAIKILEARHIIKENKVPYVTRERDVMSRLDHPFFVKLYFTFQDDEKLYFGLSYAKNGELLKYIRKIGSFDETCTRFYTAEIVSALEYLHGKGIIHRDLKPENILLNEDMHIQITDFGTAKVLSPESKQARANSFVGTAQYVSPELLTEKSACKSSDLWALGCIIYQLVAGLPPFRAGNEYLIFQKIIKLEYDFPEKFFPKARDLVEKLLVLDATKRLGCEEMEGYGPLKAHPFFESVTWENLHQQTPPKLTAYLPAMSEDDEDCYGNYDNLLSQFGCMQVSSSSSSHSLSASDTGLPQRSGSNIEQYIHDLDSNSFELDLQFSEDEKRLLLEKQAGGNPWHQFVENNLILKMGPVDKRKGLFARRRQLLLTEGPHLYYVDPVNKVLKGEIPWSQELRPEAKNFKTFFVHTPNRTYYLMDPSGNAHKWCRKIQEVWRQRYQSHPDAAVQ",
  "test": "cell-based or functional assay",
  "data": [
    {"binder": "REPRILSEEEQEMFRDFDYIADWC", "note": "[PIFtide (24 residue synthetic peptide encompassing the PDK1 binding site on PIF)]", "values": [
      {"measurement": "inhibition by 2 µM PIFtide of the activation of S6K1-T2[T412E] and SGK1[T422D] by this PDK1 mutant", "result": 50, "unit": "%"},
      {"measurement": "inhibition by 35 µM PIFtide of the activation of S6K1-T2[T412E] and SGK1[T422D] by this PDK1 mutant", "result": "> 95", "unit": "%"}
    ]}
  ]
}
